Nine molecules from patent US20260028402A1 (SANYOU BIOPHARMACEUTICALS, published 2026) can be followed below.

In assay [1] the target is T1, full-length mouse CD100 protein MusCD100 on cells (mouse, UniProt O09126 24-861).
T1 construct: whole, on cells; Overexpressed on HEK293 cells; also called MusCD100-HEK293
Description: flow cytometry on MusCD100-HEK293 cells.

The target of assay [2] is T2, full-length human CD100 protein HuCD100 on cells (human, UniProt Q92854 22-862).
T2 construct: whole, on cells; the cell is named under assay; also called HuCD100-HEK293; human CD100 on HuPBMC
The assay is described as follows: flow cytometry on Jurkat cells naturally expressing human CD100. On the procedure: (§1) The specific procedures were as follows: HuPBMCs (AllCells, PB004F-C (Y1246)) and Jurkat cells (ATCC, TIB-152) in logarithmic growth phase were prepared as single-cell suspensions. The density was adjusted to 1×10⁶ cells/mL, and 100 μL of each suspension was added per well to 96-well plates. The plates were centrifuged at 4° C., 300 g and the supernatants were removed. […] After incubation, the cell mixture was washed three times, and then 100 μL of 1:300 diluted secondary antibody Goat F(ab′)₂ Anti-Human IgG-Fc (PE) (abcam, ab98596) was added, and the plates were incubated in the dark at 4° C. for 30 min. Following 3 additional washes, detection was performed using a flow cytometer (Beckman, CytoFLEX AOO-1-1102).
Background: A flow cytometer gives signals particle by particle.

In a further assay the target is HuCD100-His (human, UniProt Q92854 22-734). The assay is described as follows: cell-based or functional assay.
The target in assay [3] is T2, full-length human CD100 protein HuCD100 …. The assay is described as follows: flow cytometry on HuPBMCs naturally expressing human CD100. On the procedure:
as §1

The target of assay [4] is T3, MusCD100-His (mouse, UniProt O09126 24-733).
T3 construct: range 24-733; Expressed in HEK293 cells; also called MusCD100-His antigen protein; not shown: His tag added to the C-terminus
Description: primary ELISA screening of monoclonal clones. (In an ELISA, binding on a coated surface is turned into a signal by an enzyme label.)

In assay [5] the target is T3, MusCD100-His. Description: ELISA, antigen coated on plate.
Assay [6] deals with T4, full-length mouse Plexin-B1 protein MusPlexin-B1 on cells (mouse, UniProt Q8CJH3 20-2119).
T4 construct: whole, on cells; Overexpressed on HEK293 cells; also called MusPlexin-B1-HEK293
T4 sequence (Q8CJH3 20-2119): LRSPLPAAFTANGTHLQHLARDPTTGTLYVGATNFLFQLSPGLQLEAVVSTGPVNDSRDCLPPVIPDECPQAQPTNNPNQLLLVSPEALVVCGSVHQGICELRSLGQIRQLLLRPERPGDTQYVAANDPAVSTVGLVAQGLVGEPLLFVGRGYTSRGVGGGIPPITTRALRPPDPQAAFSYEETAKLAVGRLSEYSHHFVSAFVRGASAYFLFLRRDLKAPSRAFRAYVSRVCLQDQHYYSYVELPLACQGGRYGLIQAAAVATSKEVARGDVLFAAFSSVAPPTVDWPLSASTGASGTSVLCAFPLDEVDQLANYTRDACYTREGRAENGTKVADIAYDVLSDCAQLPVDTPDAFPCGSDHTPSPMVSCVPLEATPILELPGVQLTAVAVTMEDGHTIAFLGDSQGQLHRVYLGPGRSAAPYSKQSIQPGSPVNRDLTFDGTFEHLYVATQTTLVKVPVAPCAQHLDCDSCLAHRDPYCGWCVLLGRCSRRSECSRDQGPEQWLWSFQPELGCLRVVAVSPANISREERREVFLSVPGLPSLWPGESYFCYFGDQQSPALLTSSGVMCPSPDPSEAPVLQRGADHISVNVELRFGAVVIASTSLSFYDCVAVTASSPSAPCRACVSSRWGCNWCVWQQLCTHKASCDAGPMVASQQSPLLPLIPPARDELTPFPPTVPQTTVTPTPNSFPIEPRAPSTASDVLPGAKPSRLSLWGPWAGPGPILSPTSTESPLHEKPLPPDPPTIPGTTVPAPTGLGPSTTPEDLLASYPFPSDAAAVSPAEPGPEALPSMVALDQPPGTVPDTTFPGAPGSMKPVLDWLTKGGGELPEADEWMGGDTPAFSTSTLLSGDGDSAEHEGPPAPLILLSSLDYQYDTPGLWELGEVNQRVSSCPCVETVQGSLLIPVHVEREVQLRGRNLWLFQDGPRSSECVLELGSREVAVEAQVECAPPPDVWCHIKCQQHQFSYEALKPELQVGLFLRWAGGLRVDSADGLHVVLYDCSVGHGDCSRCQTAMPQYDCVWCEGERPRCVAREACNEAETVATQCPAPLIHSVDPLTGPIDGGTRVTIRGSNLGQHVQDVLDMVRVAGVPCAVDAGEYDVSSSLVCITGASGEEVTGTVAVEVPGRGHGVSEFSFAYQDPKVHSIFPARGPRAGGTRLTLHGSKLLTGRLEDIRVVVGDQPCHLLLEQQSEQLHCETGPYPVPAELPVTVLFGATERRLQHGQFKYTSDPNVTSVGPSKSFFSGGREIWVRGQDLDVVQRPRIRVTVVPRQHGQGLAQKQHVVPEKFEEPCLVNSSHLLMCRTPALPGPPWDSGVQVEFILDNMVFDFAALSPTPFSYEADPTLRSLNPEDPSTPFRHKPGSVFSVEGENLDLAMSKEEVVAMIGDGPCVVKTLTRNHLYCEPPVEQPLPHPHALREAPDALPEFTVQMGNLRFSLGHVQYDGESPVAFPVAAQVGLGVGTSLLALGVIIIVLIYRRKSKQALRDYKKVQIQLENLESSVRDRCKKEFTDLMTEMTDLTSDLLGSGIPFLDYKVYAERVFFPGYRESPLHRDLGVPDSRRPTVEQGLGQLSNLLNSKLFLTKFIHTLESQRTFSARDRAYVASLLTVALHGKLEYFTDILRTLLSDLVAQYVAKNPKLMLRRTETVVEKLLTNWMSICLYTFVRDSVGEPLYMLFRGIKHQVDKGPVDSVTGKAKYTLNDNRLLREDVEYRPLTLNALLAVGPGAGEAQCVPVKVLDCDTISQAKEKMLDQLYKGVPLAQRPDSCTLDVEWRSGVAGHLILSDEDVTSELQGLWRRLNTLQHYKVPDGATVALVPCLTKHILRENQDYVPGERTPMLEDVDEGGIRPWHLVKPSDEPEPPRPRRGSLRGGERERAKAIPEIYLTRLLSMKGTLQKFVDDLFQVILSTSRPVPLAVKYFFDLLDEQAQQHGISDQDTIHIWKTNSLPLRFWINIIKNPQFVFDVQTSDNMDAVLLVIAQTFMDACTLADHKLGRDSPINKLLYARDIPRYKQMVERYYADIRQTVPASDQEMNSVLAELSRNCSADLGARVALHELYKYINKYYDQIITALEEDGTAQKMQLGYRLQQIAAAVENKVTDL
The assay is described as follows: flow cytometry on MusPlexin-B1-HEK293 cells with biotinylated antigen protein and streptavidin PE. On the procedure:
Flow cytometry identification of HuPlexin-B1-HEK293, MusPlexin-B1-HEK293, CynoPlexin-B1-HEK293, and HuPlexin-B2-HEK293 cells: cells of the above cell lines in the logarithmic growth phase were trypsinized and plated into 96-well plates. […] After washing, the prepared eBioscience Streptavidin PE (Invitrogen, 2265658, 1:300) was added and the plates were incubated at 4° C. for 30 min. Finally, detection was performed using a flow cytometer (Beckman, CytoFLEXAOO-1-1102).

B1: A31 (antibody, human IgG4 S228P, V domains shown)
VH: EVQLVESGGGLVQPEGSLRLSCAASGFPLDYYAIGWFRQAPGKEREGVSCIISGGSTKYSASVKGRFTISRDSANNTVYLQMNSLKPEDTAVYFCAVSWSCDLFPRDTYGWDAWGQGTLVTVSS
notes: also called antibody A31; antibody molecule A31
Regarding B1, in assay [1], the binding result is “binds”. Moreover, in assay [2], the EC50 is 0.302 nM. Besides, in the assay with HuCD100-His, the “MDSC proportion (%) at 2.821 nM antibody” value was 16.8%, the “MDSC proportion (%) at 8.463 nM antibody” value is 8.97%, the “MDSC proportion (%) at 25.389 nM antibody” value stood at 9.56% and the “MDSC proportion (%) at 76.166 nM antibody” value is 10.4%. For the same molecule, in the assay with HuCD100-His, the “MDSC proportion (%) at 228.498 nM antibody” value came to 10.7% and the “MDSC proportion (%) at 685.495 nM antibody” value was 14.7%. For the same molecule, the EC50 in assay [3] was 0.162 nM.

B2: A31-VHH (VHH)
VHH: EVQLVESGGGLVQPEGSLRLSCAASGFPLDYYAIGWFRQAPGKEREGVSCIISGGSTKYSASVKGRFTISRDSANNTVYLQMNSLKPEDTAVYFCAVSWSCDLFPRDTYGWDAWGQGTLVTVSS
notes: Tested as phage clone / VHH lysate in the screening; also called antibody A31-VHH
Consider B2, for which, in the assay with MusCD100-His [4], the binding result is listed as “binds”.

B3: A31-VHH1 (antibody, human IgG4 S228P, V domains shown)
VH: EVQLVESGGGLVQPEGSLRLSCAASGFPLDYYAIGWFRQAPGKEREGVSCIISGGSTKYSASVKGRFTISRDSAKNTVYLQMNSLRAEDTAVYFCAVSWSCDLFPRDTYGWDAWGQGTLVTVSS
notes: also called humanized antibody A31-VHH1
As to B3, the binding result in assay [1] is “binds”. In the assay with HuCD100-His, the “MDSC proportion (%) at 2.821 nM antibody” value amounted to 16.4%, the “MDSC proportion (%) at 8.463 nM antibody” value stood at 9.21%, the “MDSC proportion (%) at 25.389 nM antibody” value was determined as 7.71% and the “MDSC proportion (%) at 76.166 nM antibody” value amounted to 7.84%. Besides, in the assay with HuCD100-His, the “MDSC proportion (%) at 228.498 nM antibody” value was found to be 13.7% and the “MDSC proportion (%) at 685.495 nM antibody” value amounted to 10%. Besides, the binding result with MusCD100-His [5] is reported as “binds”.

B4: MusCD100-Fc (Fc fusion, mouse, UniProt O09126 24-733, looked up)
chain: FAPVPRLTWEHGEVGLVQFHKPGIFNYSALLMSEDKDTLYVGAREAVFAVNALNISEKQHEVYWKVSEDKKSKCAEKGKSKQTECLNYIRVLQPLSSTSLYVCGTNAFQPTCDHLNLTSFKFLGKSEDGKGRCPFDPAHSYTSVMVGGELYSGTSYNFLGSEPIISRNSSHSPLRTEYAIPWLNEPSFVFADVIQKSPDGPEGEDDKVYFFFTEVSVEYEFVFKLMIPRVARVCKGDQGGLRTLQKKWTSFLKARLICSKPDSGLVFNILQDVFVLRAPGLKEPVFYAVFTPQLNNVGLSAVCAYTLATVEAVFSRGKYMQSATVEQSHTKWVRYNGPVPTPRPGACIDSEARAANYTSSLNLPDKTLQFVKDHPLMDDSVTPIDNRPKLIKKDVNYTQIVVDRTQALDGTFYDVMFISTDRGALHKAVILTKEVHVIEETQLFRDSEPVLTLLLSSKKGRKFVYAGSNSGVVQAPLAFCEKHGSCEDCVLARDPYCAWSPAIKACVTLHQEEASSRGWIQDMSGDTSSCLDKSKESFNQHFFKHGGTAELKCFQKSNLARVVWKFQNGELKAASPKYGFVGRKHLLIFNLSDGDSGVYQCLSEERVRNKTVSQLLAKHVLEVKMVPRTPPSPTSEDAQTEGSKITSKMPVASTQGSSPPTPALWATSPRAATLPPKSSSGTSCEPKMVINTVPQLHSEKTVYLKSSDNR
modifications: biotinylated in the Plexin binding and blocking assays (sites not given)
notes: range 24-733; Expressed in HEK293 cells; also called MusCD100-Fc-Biotin; MusCD100-Fc antigen protein; not shown: human Fc tag added to the C-terminus
For the molecule B4, the binding result in assay [6] is on record as “binds”.

B5: Pepinemab (antibody, V domains shown)
VH: QVQLVQSGAEVKKPGSSVKVSCKASGYSFSDYYMHWVRQAPGQGLEWMGQINPTTGGASYNQKFKGKATITVDKSTSTAYMELSSLRSEDTAVYYCARYYYGRHFDVWGQGTTVTVSS
VL: DIVMTQSPDSLAVSLGERATINCKASQSVDYDGDSYMNWYQQKPGQPPKLLIYAASNLESGVPDRFSGSGSGTDFTLTISSLQAEDVAVYYCQQSNEDPYTFGQGTKLEIK
B5: the figures for the EC50 in assay [2] and in assay [3] were 0.559 nM and 0.223 nM, respectively.

B6: A9-VHH2 (antibody, human IgG4 S228P, V domains shown)
VH: QVQLVESGGGLVQAGGSLRLSCAASGFSLDYYAIGWFRQAPGKEREEVSCISSSGGSTDYADSVKGRFTISRAYAKVYLQMNSLRAEDTAVYYCAAGVSGSVCPPLIGAYWGQGTLVTVSS
B6: in the assay with HuCD100-His, the “MDSC proportion (%) at 2.821 nM antibody” value was found to be 31.2%, the “MDSC proportion (%) at 8.463 nM antibody” value was 17.8%, the “MDSC proportion (%) at 25.389 nM antibody” value amounted to 13.1% and the “MDSC proportion (%) at 76.166 nM antibody” value was 10.5%. In the assay with HuCD100-His, the “MDSC proportion (%) at 228.498 nM antibody” value came out at 9.09% and the “MDSC proportion (%) at 685.495 nM antibody” value is 10.9%.

B7: A9-VHH3 (antibody, human IgG4 S228P, V domains shown)
VH: QVQLVESGGGLVQAGGSLRLSCAASGFSLDYYAIGWFRQAPGKGLEEVSCISSSGGSTDYADSVKGRFTISRAYAKVYLQMNSLRAEDTAVYYCAAGVSGSVCPPLIGAYWGQGTLVTVSS
In the case of B7, in the assay with HuCD100-His, the “MDSC proportion (%) at 2.821 nM antibody” value was determined as 30.9%, the “MDSC proportion (%) at 8.463 nM antibody” value was determined as 21.3%, the “MDSC proportion (%) at 25.389 nM antibody” value was determined as 11.8% and the “MDSC proportion (%) at 76.166 nM antibody” value came out at 7.66%. In addition, in the assay with HuCD100-His, the “MDSC proportion (%) at 228.498 nM antibody” value turned out to be 8.85% and the “MDSC proportion (%) at 685.495 nM antibody” value worked out at 15%.

B8: A9 (antibody, human IgG4 S228P, V domains shown)
VH: QVQLVESGGGLVQAGGSLRLSCAASGFSLDYYAIGWFRQAPGKEREEVSCISSSGGSTDYADSVKGRFTISRAYAKVYLQMNSLKPEDTAVYYCAAGVSGSVCPPLIGAYWGQGTQVTVSS
notes: also called antibody A9; antibody molecule A9
B8 came in with a concentration for a half-maximal effect (EC50) in assay [2] of 0.346 nM. In the assay with HuCD100-His, the “MDSC proportion (%) at 2.821 nM antibody” value was 34.2%, the “MDSC proportion (%) at 8.463 nM antibody” value was 23.2%, the “MDSC proportion (%) at 25.389 nM antibody” value came to 10.2% and the “MDSC proportion (%) at 76.166 nM antibody” value turned out to be 5.12%. Further, in the assay with HuCD100-His, the “MDSC proportion (%) at 228.498 nM antibody” value is 7.08% and the “MDSC proportion (%) at 685.495 nM antibody” value was determined as 11.1%. Also, a half-maximal response in assay [3] (EC50) required 0.191 nM.

B9: A9-VHH1 (antibody, human IgG4 S228P, V domains shown)
VH: QVQLVESGGGLVQPGGSLRLSCAASGFSLDYYAIGWFRQAPGKEREEVSCISSSGGSTDYADSVKGRFTISRAYAKVYLQMNSLKPEDTAVYYCAAGVSGSVCPPLIGAYWGQGTLVTVSS
Regarding B9, in the assay with HuCD100-His, the “MDSC proportion (%) at 2.821 nM antibody” value was found to be 32.6%, the “MDSC proportion (%) at 8.463 nM antibody” value turned out to be 21.1%, the “MDSC proportion (%) at 25.389 nM antibody” value came to 11% and the “MDSC proportion (%) at 76.166 nM antibody” value is 6.56%. Moreover, in the assay with HuCD100-His, the “MDSC proportion (%) at 228.498 nM antibody” value is 9.06% and the “MDSC proportion (%) at 685.495 nM antibody” value was 15.6%.

Broadly, the EC50 is the concentration at which the effect is half-maximal. Higher therefore signals a need for much substance.
